From PMC5359885
pKd: −log10 of the molar value.

Tests used:
[1] = biological target: purified human spectrin (Sigma) (human) (UniProt P02549); experiment: ELISA; spectrin coated on the plate; serially diluted His-tagged protein in PBS, overnight at 4 °C; detected with anti-His tag antibody; Scatchard analysis
[2] = biological target: F-actin (G-actin from Cytoskeleton polymerized to F-actin) (UniProt P68135); experiment: co-sedimentation; Actin Binding Protein Spin-Down Assay kit; F-actin (7 μM) incubated with His-tagged protein (SURFIN4.2^WRD2-His 12.5 to 0.0 μM; His control 7.0 μM; Pf332^WRD 4.2 μM) at room temperature 30 min; 150,000×g 1.5 h at 24 °C; Western blot of supernatant and pellet, densitometry, one-site specific binding model
Spectrin (Homo sapiens) = Spectrin (Homo sapiens) (UniProt P02549); settings: cited from earlier work

UniProt P02549, sequence (P02549 whole entry, chain 1 of 2): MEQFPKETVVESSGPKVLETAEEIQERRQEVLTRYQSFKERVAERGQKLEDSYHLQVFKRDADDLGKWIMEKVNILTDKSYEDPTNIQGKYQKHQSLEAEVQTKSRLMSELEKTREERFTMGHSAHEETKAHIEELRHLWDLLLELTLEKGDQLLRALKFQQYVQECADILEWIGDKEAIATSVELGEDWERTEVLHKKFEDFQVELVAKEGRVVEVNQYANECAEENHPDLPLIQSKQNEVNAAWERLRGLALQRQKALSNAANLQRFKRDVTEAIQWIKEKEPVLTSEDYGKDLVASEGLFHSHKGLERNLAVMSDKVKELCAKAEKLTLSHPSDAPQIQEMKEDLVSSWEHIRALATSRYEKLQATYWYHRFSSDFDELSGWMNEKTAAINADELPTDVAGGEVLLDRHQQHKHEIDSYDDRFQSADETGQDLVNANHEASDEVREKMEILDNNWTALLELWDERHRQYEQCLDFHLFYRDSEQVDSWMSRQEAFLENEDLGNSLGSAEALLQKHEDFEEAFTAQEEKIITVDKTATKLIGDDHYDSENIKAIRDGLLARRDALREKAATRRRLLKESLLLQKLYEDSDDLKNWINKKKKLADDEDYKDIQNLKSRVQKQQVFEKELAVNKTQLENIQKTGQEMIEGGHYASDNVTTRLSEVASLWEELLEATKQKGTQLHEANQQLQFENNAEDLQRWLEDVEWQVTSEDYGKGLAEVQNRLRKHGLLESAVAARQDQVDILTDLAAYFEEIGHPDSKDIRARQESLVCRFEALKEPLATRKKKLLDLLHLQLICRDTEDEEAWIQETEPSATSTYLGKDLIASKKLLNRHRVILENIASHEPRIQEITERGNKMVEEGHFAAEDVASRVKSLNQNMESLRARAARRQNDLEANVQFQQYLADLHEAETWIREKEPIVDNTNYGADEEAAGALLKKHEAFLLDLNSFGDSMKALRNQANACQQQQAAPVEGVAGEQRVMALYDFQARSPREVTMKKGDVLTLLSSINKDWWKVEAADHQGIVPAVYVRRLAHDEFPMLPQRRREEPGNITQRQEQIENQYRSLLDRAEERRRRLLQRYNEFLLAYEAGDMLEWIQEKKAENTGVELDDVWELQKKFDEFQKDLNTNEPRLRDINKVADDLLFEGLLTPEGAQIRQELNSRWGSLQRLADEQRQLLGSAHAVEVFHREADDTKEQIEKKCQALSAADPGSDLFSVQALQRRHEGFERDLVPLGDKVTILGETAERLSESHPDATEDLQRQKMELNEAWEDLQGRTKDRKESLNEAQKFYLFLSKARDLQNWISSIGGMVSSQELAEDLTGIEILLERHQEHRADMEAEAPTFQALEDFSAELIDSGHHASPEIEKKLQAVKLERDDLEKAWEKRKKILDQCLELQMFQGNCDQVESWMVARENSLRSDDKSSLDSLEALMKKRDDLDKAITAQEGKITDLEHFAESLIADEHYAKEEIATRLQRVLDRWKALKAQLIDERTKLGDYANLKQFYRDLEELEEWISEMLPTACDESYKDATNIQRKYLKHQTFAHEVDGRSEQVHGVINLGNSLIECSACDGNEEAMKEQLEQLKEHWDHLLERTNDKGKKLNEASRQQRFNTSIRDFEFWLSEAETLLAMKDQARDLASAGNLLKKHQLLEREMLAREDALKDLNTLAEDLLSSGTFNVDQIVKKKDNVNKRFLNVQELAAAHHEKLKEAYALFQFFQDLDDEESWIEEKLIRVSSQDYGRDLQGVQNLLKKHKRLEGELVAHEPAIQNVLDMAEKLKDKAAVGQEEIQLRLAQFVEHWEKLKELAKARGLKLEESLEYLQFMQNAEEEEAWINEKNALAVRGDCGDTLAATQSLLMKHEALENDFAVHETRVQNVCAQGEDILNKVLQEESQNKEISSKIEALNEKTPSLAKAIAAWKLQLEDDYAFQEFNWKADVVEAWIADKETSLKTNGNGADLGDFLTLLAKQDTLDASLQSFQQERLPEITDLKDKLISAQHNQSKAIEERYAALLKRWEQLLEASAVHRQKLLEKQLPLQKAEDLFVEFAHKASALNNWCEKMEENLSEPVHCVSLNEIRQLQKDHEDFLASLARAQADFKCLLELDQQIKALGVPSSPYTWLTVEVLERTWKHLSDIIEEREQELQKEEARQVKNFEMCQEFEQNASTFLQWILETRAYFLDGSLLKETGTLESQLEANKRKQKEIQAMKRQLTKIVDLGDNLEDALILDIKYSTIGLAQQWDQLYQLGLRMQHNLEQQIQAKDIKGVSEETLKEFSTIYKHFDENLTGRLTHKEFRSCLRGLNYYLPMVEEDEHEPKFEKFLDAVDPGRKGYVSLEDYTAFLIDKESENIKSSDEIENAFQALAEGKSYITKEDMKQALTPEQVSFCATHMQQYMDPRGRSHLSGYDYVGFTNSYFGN
UniProt P02549, sequence (P11277 2-2137, chain 2 of 2, further chain): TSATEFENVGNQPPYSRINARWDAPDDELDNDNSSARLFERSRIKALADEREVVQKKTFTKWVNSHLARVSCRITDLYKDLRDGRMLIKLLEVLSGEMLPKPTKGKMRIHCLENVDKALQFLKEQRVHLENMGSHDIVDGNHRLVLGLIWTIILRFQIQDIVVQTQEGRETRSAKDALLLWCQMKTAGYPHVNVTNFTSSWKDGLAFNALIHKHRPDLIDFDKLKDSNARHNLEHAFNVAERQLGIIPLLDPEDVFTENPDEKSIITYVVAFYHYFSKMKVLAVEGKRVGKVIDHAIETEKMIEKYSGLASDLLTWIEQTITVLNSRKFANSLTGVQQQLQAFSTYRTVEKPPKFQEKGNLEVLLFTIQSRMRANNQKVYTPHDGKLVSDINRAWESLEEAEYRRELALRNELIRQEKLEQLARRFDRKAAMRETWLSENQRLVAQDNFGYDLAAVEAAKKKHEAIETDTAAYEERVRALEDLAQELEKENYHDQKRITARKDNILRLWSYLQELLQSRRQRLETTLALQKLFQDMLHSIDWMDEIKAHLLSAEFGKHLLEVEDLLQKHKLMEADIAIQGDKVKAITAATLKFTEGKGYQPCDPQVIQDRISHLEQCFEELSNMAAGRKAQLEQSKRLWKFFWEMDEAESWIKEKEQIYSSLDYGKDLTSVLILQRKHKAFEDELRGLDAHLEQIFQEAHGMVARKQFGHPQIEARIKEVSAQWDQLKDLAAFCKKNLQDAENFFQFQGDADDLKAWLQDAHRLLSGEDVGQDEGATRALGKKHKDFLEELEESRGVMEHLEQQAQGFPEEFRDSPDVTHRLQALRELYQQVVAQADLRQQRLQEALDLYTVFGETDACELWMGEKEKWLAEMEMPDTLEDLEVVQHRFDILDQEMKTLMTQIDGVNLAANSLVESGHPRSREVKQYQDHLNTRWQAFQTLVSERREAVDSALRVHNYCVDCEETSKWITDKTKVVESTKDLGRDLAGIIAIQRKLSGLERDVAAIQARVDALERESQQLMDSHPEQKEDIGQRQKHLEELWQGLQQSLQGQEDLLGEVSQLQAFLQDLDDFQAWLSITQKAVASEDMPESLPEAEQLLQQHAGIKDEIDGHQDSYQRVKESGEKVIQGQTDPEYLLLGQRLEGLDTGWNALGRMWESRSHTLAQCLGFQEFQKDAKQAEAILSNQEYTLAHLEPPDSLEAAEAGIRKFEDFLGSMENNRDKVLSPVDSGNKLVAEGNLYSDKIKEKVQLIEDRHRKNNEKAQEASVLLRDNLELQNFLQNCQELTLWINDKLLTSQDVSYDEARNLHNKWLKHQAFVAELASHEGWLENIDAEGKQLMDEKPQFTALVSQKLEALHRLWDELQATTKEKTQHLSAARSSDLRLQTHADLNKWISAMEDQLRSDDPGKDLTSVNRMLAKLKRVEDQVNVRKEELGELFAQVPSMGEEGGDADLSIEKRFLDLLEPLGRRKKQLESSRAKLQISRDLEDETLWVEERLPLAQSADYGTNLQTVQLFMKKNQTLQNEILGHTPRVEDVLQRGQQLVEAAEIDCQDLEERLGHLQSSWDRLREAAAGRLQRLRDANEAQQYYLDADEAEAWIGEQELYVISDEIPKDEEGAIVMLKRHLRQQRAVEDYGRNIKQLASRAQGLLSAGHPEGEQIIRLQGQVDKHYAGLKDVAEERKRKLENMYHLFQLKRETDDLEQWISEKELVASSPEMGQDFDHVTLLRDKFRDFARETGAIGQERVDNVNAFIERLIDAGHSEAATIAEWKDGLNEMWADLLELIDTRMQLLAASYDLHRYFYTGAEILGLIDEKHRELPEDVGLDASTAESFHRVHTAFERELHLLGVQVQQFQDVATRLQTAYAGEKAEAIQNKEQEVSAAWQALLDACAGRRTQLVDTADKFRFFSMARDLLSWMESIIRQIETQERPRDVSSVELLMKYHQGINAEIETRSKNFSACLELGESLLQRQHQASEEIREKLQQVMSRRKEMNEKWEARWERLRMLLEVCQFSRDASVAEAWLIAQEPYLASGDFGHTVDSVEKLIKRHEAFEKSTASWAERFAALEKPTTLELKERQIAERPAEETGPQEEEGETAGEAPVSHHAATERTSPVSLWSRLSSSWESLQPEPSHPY

Row | Substance | pKd [1] | pKd [2] | pKd (Spectrin (Homo sapiens))
1 | His-tagged recombinant SURFIN4.2 WRD2 (second tryptophan-rich domain of SURFIN4.2, amino acids 1349-1567), expressed in E. coli (domain or fragment) | 6.29 | 5.29 | 
2 | RESA (from UniProt P13830) |  |  | 6.06
